# Results as given in publication PMC5605508.
# What was measured:
# [1] = target: SSBΔC8 (Escherichia coli) (UniProt P0AGE0); experiment: EMSA; settings: Buffer 1: 25 mM Tris-HCl, 10 mM Mg acetate, 3 mM K glutamate, pH 7.5, room temperature (TPM: 2 uM RecA, 2 mM ATP, 1 mM DTT, 1 mg/mL BSA); buffer 2: 10 mM Tris …
# [2] = target: wtSSB (Escherichia coli) (UniProt P0AGE0); experiment: EMSA; settings: Buffer 1: 25 mM Tris-HCl, 10 mM Mg acetate, 3 mM K glutamate, pH 7.5, room temperature (TPM: 2 uM RecA, 2 mM ATP, 1 mM DTT, 1 mg/mL BSA); buffer 2: 10 mM Tris …
# [3] = target: SSBΔC8 (Escherichia coli) (UniProt P0AGE0); experiment: SPR; settings: 10 mM Mg acetate, 3 mM K glutamate, pH 7.5, room temperature (TPM: 2 uM RecA, 2 mM ATP, 1 mM DTT, 1 mg/mL BSA)
# [4] = target: wtSSB (Escherichia coli) (UniProt P0AGE0); experiment: SPR; settings: 10 mM Mg acetate, 3 mM K glutamate, pH 7.5, room temperature (TPM: 2 uM RecA, 2 mM ATP, 1 mM DTT, 1 mg/mL BSA)
# [5] = buffer 1, 0.005% Tween-20, Buffer 1: 25 mM Tris-HCl, buffer 2: 10 mM Tris …
# [6] = buffer 2 (10 mM Tris, 0.1 mM Na3EDTA, pH 8.1), 0.005% Tween-20, Buffer 1: 25 mM Tris-HCl
Substance,Kd [1] [nM],Kd [2] [nM],"Kd [3, 5] [nM]","Kd [3, 6] [nM]","Kd [4, 5] [nM]","Kd [4, 6] [nM]"
55 nt ssDNA overhang (EMSA),13.9,4.04,,,,
55 nt ssDNA overhang (SPR),,,4.7,89.1,24,145
